US20040157248

How the values were obtained:
[1] = biological target: RecA wild-type (Escherichia coli) (UniProt P0A7G6); conditions: ATPase rate without SSB relative to with SSB, 10 mM Mg
[2] = biological target: RecAΔC17 (Escherichia coli) (UniProt P0A7G6); conditions: ATPase rate without SSB relative to with SSB, 10 mM Mg
[3] = biological target: RecA wild-type (Escherichia coli) (UniProt P0A7G6); conditions: salt titration midpoint by DNA-dependent ATPase, no SSB, 37 C; value is NaCl at half-maximal ATPase
[4] = biological target: RecAΔC17 (Escherichia coli) (UniProt P0A7G6); conditions: salt titration midpoint by DNA-dependent ATPase, no SSB, 37 C; value is NaCl at half-maximal ATPase
[5] = biological target: RecA E38K/ΔC17 (Escherichia coli) (UniProt P0A7G6); conditions: apparent kcat of ATP hydrolysis with SSB-prebound poly(dT); no lag; higher with SSB than without

Substance	relative ATPase rate [1] [%]	relative ATPase rate [2] [%]	K half [3] [mM NaCl]	K half [4] [mM NaCl]	activity [5] [min⁻¹]
M13mp8 circular ssDNA	30	84	–	–	–
poly(dT)	–	–	750	700	> 20
